In the experiment the target is T1, Recombinant His-tagged NPM/B23 (UniProt P06748 1-294).
T1 construct: NPM/B23 (Nucleophosmin), bacterially produced, unphosphorylated; also called His-NPM/B23; His-tagged NPM/B23 WT; source: E. coli BL21, purified (Ni-NTA agarose)
Put plainly: pull-down; in vitro binding assay: Flag-Plk2 fragments immunoprecipitated from 293T cells, bound to Protein G sepharose, incubated with 15 µg recombinant His-NPM/B23 in PBS with 0.05% NP-40 for 2 h at 4°C; Western blot. The following applies: both partners purified. A general note: A western blot detects proteins with antibodies after separation by electrophoresis.

Consider one molecule from article PMC2844433, “Polo-Like Kinase 2-Dependent Phosphorylation of NPM/B23 on Serine 4 Triggers Centriole Duplication” (PLoS ONE, 2010).

T1 sequence (P06748 whole entry): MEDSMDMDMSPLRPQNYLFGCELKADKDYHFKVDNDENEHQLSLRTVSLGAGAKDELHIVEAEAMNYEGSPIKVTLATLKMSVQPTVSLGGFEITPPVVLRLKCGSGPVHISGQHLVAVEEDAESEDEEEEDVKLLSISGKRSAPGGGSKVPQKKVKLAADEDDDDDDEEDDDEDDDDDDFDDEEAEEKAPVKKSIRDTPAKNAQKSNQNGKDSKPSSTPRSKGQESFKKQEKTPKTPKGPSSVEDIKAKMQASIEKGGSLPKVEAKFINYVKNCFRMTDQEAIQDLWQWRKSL

B1: Flag-Plk2-(aa 590–685) (domain or fragment, UniProt Q9NYY3 590-685, looked up)
chain: PSVTDIRRPRLYLLQWLKSDKALMMLFNDGTFQVNFYHDHTKIIICSQNEEYLLTYINEDRISTTFRLTTLLMSGCSSELKNRMEYALNMLLQRCN
notes: also called second Polo-box of Plk2; source: 293T, transfected, immunoprecipitated with anti-Flag antibodies
In the case of B1, the binding result was “binds”.
